Measured values: US20230381229A1 (ALPINE IMMUNE SCIENCES, INC., published 2023)
Substitutions are numbered along the chain they refer to. Names may count otherwise.

T1: TIGIT (human)
T1 chain: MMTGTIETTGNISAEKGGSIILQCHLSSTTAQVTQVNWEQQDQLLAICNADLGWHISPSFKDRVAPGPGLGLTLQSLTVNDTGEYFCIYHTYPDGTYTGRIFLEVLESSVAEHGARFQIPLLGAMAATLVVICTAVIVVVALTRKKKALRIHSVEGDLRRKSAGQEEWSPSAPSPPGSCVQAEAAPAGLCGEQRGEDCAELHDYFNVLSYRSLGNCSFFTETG

B1: variant CD155 IgV-Fc P18S, D23G, C29R, N35D, E37G, M55I, Q62K, S65A, S67G, R78G, L79P, F91S, L104M, T107M, Q110R (Fc fusion)
chain: WPPPGTGDVVVQAPTQVSGFLGGSVTLPRYLQVPDMGVTHVSQLTWARHGESGSIAVFHQTKGPAYGESKRLEFVAAGPGAELRNASLRMSGLRVEDEGNYTCMFVMFPRGSRSVDIWLRVLGSGGGGSEPKSSDKTHTCPPCPAPEAEGAPSVFLFPPKPKDTLMISRTPEVTCVVVDVSHEDPEVKFNWYVDGVEVHNAKTKPREEQYNSTYRVVSVLTVLHQDWLNGKEYKCKVSNKALPAPIEKTISKAKGQPREPQVYTLPPSRDELTKNQVSLTCLVKGFYPSDIAVEWESNGQPENNYKTTPPVLDSDGSFFLYSKLTVDKSRWQQGNVFSCSVMHEALHNHYTQKSLSLSPGK
B2: variant CD155 IgV-Fc D8G, V9I, V11A, P18T, T26M, S52P, L79P, F91S, G92A, T107L, V115A (Fc fusion)
chain: WPPPGTGGIVAQAPTQVTGFLGDSVMLPCYLQVPNMEVTHVSQLTWARHGEPGSMAVFHQTQGPSYSESKRLEFVAARPGAELRNASLRMSALRVEDEGNYTCLFVLFPQGSRSADIWLRVLGSGGGGSEPKSSDKTHTCPPCPAPEAEGAPSVFLFPPKPKDTLMISRTPEVTCVVVDVSHEDPEVKFNWYVDGVEVHNAKTKPREEQYNSTYRVVSVLTVLHQDWLNGKEYKCKVSNKALPAPIEKTISKAKGQPREPQVYTLPPSRDELTKNQVSLTCLVKGFYPSDIAVEWESNGQPENNYKTTPPVLDSDGSFFLYSKLTVDKSRWQQGNVFSCSVMHEALHNHYTQKSLSLSPGK
B3: variant CD155 IgV-Fc P18F, E51V, S54G, Q60R, L79Q, E82G, S87T, M90I, F91S, G92R, T107M (Fc fusion)
chain: WPPPGTGDVVVQAPTQVFGFLGDSVTLPCYLQVPNMEVTHVSQLTWARHGVSGGMAVFHRTQGPSYSESKRLEFVAARQGAGLRNATLRISRLRVEDEGNYTCLFVMFPQGSRSVDIWLRVLGSGGGGSEPKSSDKTHTCPPCPAPEAEGAPSVFLFPPKPKDTLMISRTPEVTCVVVDVSHEDPEVKFNWYVDGVEVHNAKTKPREEQYNSTYRVVSVLTVLHQDWLNGKEYKCKVSNKALPAPIEKTISKAKGQPREPQVYTLPPSRDELTKNQVSLTCLVKGFYPSDIAVEWESNGQPENNYKTTPPVLDSDGSFFLYSKLTVDKSRWQQGNVFSCSVMHEALHNHYTQKSLSLSPGK
B4: variant CD155 IgV-Fc P18S, Q32R, Q62K, R78G, L79P, F91S, T107A, R113W (Fc fusion)
chain: WPPPGTGDVVVQAPTQVSGFLGDSVTLPCYLRVPNMEVTHVSQLTWARHGESGSMAVFHQTKGPSYSESKRLEFVAAGPGAELRNASLRMSGLRVEDEGNYTCLFVAFPQGSWSVDIWLRVLGSGGGGSEPKSSDKTHTCPPCPAPEAEGAPSVFLFPPKPKDTLMISRTPEVTCVVVDVSHEDPEVKFNWYVDGVEVHNAKTKPREEQYNSTYRVVSVLTVLHQDWLNGKEYKCKVSNKALPAPIEKTISKAKGQPREPQVYTLPPSRDELTKNQVSLTCLVKGFYPSDIAVEWESNGQPENNYKTTPPVLDSDGSFFLYSKLTVDKSRWQQGNVFSCSVMHEALHNHYTQKSLSLSPGK
B5: variant CD155 IgV-Fc T15I, P18S, V33M, N35F, T39S, M55L, R78S, L79P, F91S, T107M (Fc fusion)
chain: B4 chain with T15I, R32Q, V33M, N35F, T39S, M55L, K62Q, G78S, A107M, W113R
B6: variant CD155 IgV-Fc P18S, Q62K, K70E, L79P, F91S, G92E, R113W (Fc fusion)
chain: B4 chain with R32Q, K70E, G78R, G92E, A107T
B7: variant CD155 IgV-Fc V9I, P18S, S24P, H49Q, F58Y, Q60R, Q62K, L79P, F91S, T107M (Fc fusion)
chain: B4 chain with V9I, S24P, R32Q, H49Q, F58Y, Q60R, G78R, A107M, W113R
B8: variant CD155 IgV-Fc P18T, W46C, H49R, S65A, S67V, A76T, L79P, S87T, L104M (Fc fusion)
chain: WPPPGTGDVVVQAPTQVTGFLGDSVTLPCYLQVPNMEVTHVSQLTCARRGESGSMAVFHQTQGPAYVESKRLEFVTARPGAELRNATLRMFGLRVEDEGNYTCMFVTFPQGSRSVDIWLRVLGSGGGGSEPKSSDKTHTCPPCPAPEAEGAPSVFLFPPKPKDTLMISRTPEVTCVVVDVSHEDPEVKFNWYVDGVEVHNAKTKPREEQYNSTYRVVSVLTVLHQDWLNGKEYKCKVSNKALPAPIEKTISKAKGQPREPQVYTLPPSRDELTKNQVSLTCLVKGFYPSDIAVEWESNGQPENNYKTTPPVLDSDGSFFLYSKLTVDKSRWQQGNVFSCSVMHEALHNHYTQKSLSLSPGK
B9: variant CD155 IgV-Fc P18S, L21M, Y30F, N35D, R84W, F91S, T107M, D116G (Fc fusion)
chain: WPPPGTGDVVVQAPTQVSGFMGDSVTLPCFLQVPDMEVTHVSQLTWARHGESGSMAVFHQTQGPSYSESKRLEFVAARLGAELWNASLRMSGLRVEDEGNYTCLFVMFPQGSRSVGIWLRVLGSGGGGSEPKSSDKTHTCPPCPAPEAEGAPSVFLFPPKPKDTLMISRTPEVTCVVVDVSHEDPEVKFNWYVDGVEVHNAKTKPREEQYNSTYRVVSVLTVLHQDWLNGKEYKCKVSNKALPAPIEKTISKAKGQPREPQVYTLPPSRDELTKNQVSLTCLVKGFYPSDIAVEWESNGQPENNYKTTPPVLDSDGSFFLYSKLTVDKSRWQQGNVFSCSVMHEALHNHYTQKSLSLSPGK
B10: variant CD155 IgV-Fc P18T, G19D, M36T, S54N, L79P, L83Q, F91S, T107M, F108Y (Fc fusion)
chain: WPPPGTGDVVVQAPTQVTDFLGDSVTLPCYLQVPNTEVTHVSQLTWARHGESGNMAVFHQTQGPSYSESKRLEFVAARPGAEQRNASLRMSGLRVEDEGNYTCLFVMYPQGSRSVDIWLRVLGSGGGGSEPKSSDKTHTCPPCPAPEAEGAPSVFLFPPKPKDTLMISRTPEVTCVVVDVSHEDPEVKFNWYVDGVEVHNAKTKPREEQYNSTYRVVSVLTVLHQDWLNGKEYKCKVSNKALPAPIEKTISKAKGQPREPQVYTLPPSRDELTKNQVSLTCLVKGFYPSDIAVEWESNGQPENNYKTTPPVLDSDGSFFLYSKLTVDKSRWQQGNVFSCSVMHEALHNHYTQKSLSLSPGK
B11: variant CD155 IgV-Fc P18T, M55L, T61R, L79P, F91S, V106I, T107M (Fc fusion)
chain: B10 chain with D19G, T36M, N54S, M55L, T61R, Q83L, V106I, Y108F
B12: variant CD155 IgV-Fc P18T, T39S, S52P, S54R, L79P, F91S, T107M (Fc fusion)
chain: B10 chain with D19G, T36M, T39S, S52P, N54R, Q83L, Y108F
B13: variant CD155 IgV-Fc P18S, H59N, V75A, L79P, A81T, F91S, L104M, T107M (Fc fusion)
chain: B4 chain with R32Q, H59N, K62Q, V75A, G78R, A81T, L104M, A107M, W113R
B14: variant CD155 IgV-Fc P18T, D23G, Q60R, S67L, L79P, F91S, T107M, V115A (Fc fusion)
chain: B10 chain with D19G, D23G, T36M, N54S, Q60R, S67L, Q83L, Y108F, V115A
B15: variant CD155 IgV-Fc V9L, P18L, M55V, S69L, L79P, A81E, F91S, T107M (Fc fusion)
chain: B4 chain with V9L, S18L, R32Q, M55V, K62Q, S69L, G78R, A81E, A107M, W113R
B16: variant CD155 IgV-Fc V10F, T15S, P18L, R48Q, L79P, F91S, T107M, V115M (Fc fusion)
chain: B4 chain with V10F, T15S, S18L, R32Q, R48Q, K62Q, G78R, A107M, W113R, V115M
B17: variant CD155 IgV-Fc Q12H, P18T, L21S, G22S, V57A, Q62R, L79P, F91S, T107M (Fc fusion)
chain: B4 chain with Q12H, S18T, L21S, G22S, R32Q, V57A, K62R, G78R, A107M, W113R
B18: variant CD155 IgV-Fc P18S, P34S, E51V, L79P, F91S, G111R (Fc fusion)
chain: B4 chain with R32Q, P34S, E51V, K62Q, G78R, A107T, G111R, W113R
B19: variant CD155 IgV-Fc P18S, W46R, E68D, L79P, F91S, T107M, R113G (Fc fusion)
chain: B4 chain with R32Q, W46R, K62Q, E68D, G78R, A107M, W113G
B20: variant CD155 IgV-Fc V9I, P18F, A47E, G50S, E68G, L79P, F91S, T107M (Fc fusion)
chain: B4 chain with V9I, S18F, R32Q, A47E, G50S, K62Q, E68G, G78R, A107M, W113R
B21: variant CD155 IgV-Fc V9L, P18F, T45A, S65A, S67V, R78K, L79V, F91S, T107M, S114T (Fc fusion)
chain: WPPPGTGDLVVQAPTQVFGFLGDSVTLPCYLQVPNMEVTHVSQLAWARHGESGSMAVFHQTQGPAYVESKRLEFVAAKVGAELRNASLRMSGLRVEDEGNYTCLFVMFPQGSRTVDIWLRVLGSGGGGSEPKSSDKTHTCPPCPAPEAEGAPSVFLFPPKPKDTLMISRTPEVTCVVVDVSHEDPEVKFNWYVDGVEVHNAKTKPREEQYNSTYRVVSVLTVLHQDWLNGKEYKCKVSNKALPAPIEKTISKAKGQPREPQVYTLPPSRDELTKNQVSLTCLVKGFYPSDIAVEWESNGQPENNYKTTPPVLDSDGSFFLYSKLTVDKSRWQQGNVFSCSVMHEALHNHYTQKSLSLSPGK

Target: T1, TIGIT
Experiment: cell-based or functional assay

| IL-2 luciferase reporter, Normalized Fold Change from CD155-ECD [fold] | Binder |
| --- | --- |
| 1.2 | B1 |
| 8.4 | B2 |
| 5.8 | B3 |
| -2.2 | B4 |
| 1.3 | B5 |
| 2 | B6 |
| 1.1 | B7 |
| -3.4 | B8 |
| -2.2 | B9 |
| 0.3 | B10 |
| 4.5 | B11 |
| -0.1 | B12 |
| 3.5 | B13 |
| 8.6 | B14 |
| 3.1 | B15 |
| -3.4 | B16 |
| -4.1 | B17 |
| 2.1 | B18 |
| 0.9 | B19 |
| 3 | B20 |
| 6 | B21 |
